This is an account of results in the RNAGym collection of RNA variant scans (doi:10.7554/elife.80360).

The labels stand for the following.
B1: HDV Ribozyme (parent)
chain: GGCCGGCAUGGUCCCAGCCUCCUCGCUGGCGCCGGCUGGGCAACAUUCCGAGGGGACCGUCCCCUCGGUAAUGGCGAAUGGGACCCA

The variants in the series derive from B1. The experiment in a line: self-cleavage, relative activity (ratio to wild type); higher = more cleavage; co-transcriptional.
In the case of GGCCGGCAUGGUCCCAGCCUCCUCGCUGGCGCCGGCUGGGCAACAUUCCGAGCGGACCGUACCCUCGGUAAUGGCGAAUGGGACCCA, the self-cleavage is 1.04. For GGCCGGCAUGGUCCCAGCCUCCUCGCUGGCGCCGGCUCGGCAACAUUCCGAGGGGACCGUCCCCUCGGUAAUGGCGUAUGGGACCCA the value was 0.128.

As for GGCCGGCAUGGUCCCAGCCUCCUCGCUGGCGCCGGCUGGGCAACAUUCCGGGGGGACCGUCCCCUCGGUAAUGGCGAAUGGAACCCA, the self-cleavage was determined as 0.125. On to GGCCGGCAUGGUCCCAGCCUCCUCGCUGGCGCCGGCUGGGCAACAUUCCGAGGGGGCCGUCCCCGCGGUAAUGGCGAAUGGGACCCA, for which the self-cleavage was 0.957.

As to GGCCGGCAUGGUCCCAGCAUCCUCGCUGGCGCCGGCUGGGCAACAUUCCGAGGUGACCGUCCCCUCGGUAAUGGCGAAUGGGACCCA, the self-cleavage turned out to be 0.201. Consider GGCCGGCAUUGUCCCAGCCUCCUCGCUGGCGCCGGCUGGGCAACAUUCCGAGGGGACCGUUCCCUCGGUAAUGGCGAAUGGGACCCA, for which the self-cleavage was 0.684. For GCCCGGCAUGGUCCCAGCCUCCUCGCUGGCGCCGGCUGGGCAACAUUCCUAGGGGACCGUCCCCUCGGUAAUGGCGAAUGGGACCCA the value was 0.0594.

For the variant GGCCGGCAUGGUCCCAGCCUCCUCGCUGGCGCCGGCUGGGCAACAUUCCGAGGGGACCGUCCCCUCGAUAAUGACGAAUGGGACCCA, the self-cleavage is 0.51.

As to GGCCGGCAUGGUCCCAGCCUCCUCGCUGGCGCCGGCUGGGCAACAUUCCGAGGGGACCGUCCCCUCGUUAAUGGCGAAUGAGACCCA, the self-cleavage was 0.492. With GGCCGGUAUGGUCCCAGCCUCCGCGCUGGCGCCGGCUGGGCAACAUUCCGAGGGGACCGUCCCCUCGGUAAUGGCGAAUGGGACCCA, the self-cleavage was 0.332. The result for GGCCGGCAUGGUCCCAGCCUCCUCGACGGCGCCGGCUGGGCAACAUUCCGAGGGGACCGUCCCCUCGGUAAUGGCGAAUGGGACCCA reads 1.04; that for GGCCGGCAUGGUCCCAGCCUCCUCGCUAGCGCCGGCUGGGCAACAUUCCGAGGGGACCGUCCCCUCCGUAAUGGCGAAUGGGACCCA, 0.0519. As for GGCCGGUAUGGUCCGAGCCUCCUCGCUGGCGCCGGCUGGGCAACAUUCCGAGGGGACCGUCCCCUCGGUAAUGGCGAAUGGGACCCA, the self-cleavage worked out at 0.536.

As for GGCCGGCAUGGUCCCAGCCUCCUCGCUGGCGCCGGCUGGGCAACAUUCCGGGGGGACCGUCCCCUCGGUAAUGGCGAAUGGGACUCA, the self-cleavage was determined as 0.743. GGCCGGCAUGGUCCCAGCCUCCUCGCUUGCGCCGGCUGGGCAACAUUCAGAGGGGACCGUCCCCUCGGUAAUGGCGAAUGGGACCCA: the self-cleavage was 0.0297. The result for GGCCGGCAUGGUCCCAGCCUCCUCGCUGGCGCCCGCUGGGCAACAUUCCGAGGGGACCGUCCCCUCGGUAAUGGCGAAUAGGACCCA reads 0.138. Turning to GGCCGGCAUGGUCCCAGCCUCCUCGCUGGCGCCGGUUGGGCAACAUUCCGAGGGGACCGUCCCCUCGGUAAUGGCGAAUGGGACCCG, the self-cleavage amounted to 0.674.

Turning to GGCCGGCAUGGUCCCAGCCACCUCGCUGGCGCCGGCUGGGCAUCAUUCCGAGGGGACCGUCCCCUCGGUAAUGGCGAAUGGGACCCA, the self-cleavage was determined as 0.0386.

Turning to GGCCGGCAUGGUUCCAGCCUCCUCGCUGGCGCCGGCUGGGCAACAUUCCUAGGGGACCGUCCCCUCGGUAAUGGCGAAUGGGACCCA, the self-cleavage came out at 0.642. For the variant GGCCGGCAUGGUCCCUGCCUCCUCGCUGGCGCCGGCUGGGCAACAUUCCGAGGGGACCGUCCCCUCGGUAAUGGCGAAUGGGACCGA, the self-cleavage turned out to be 0.853. For GGCCGGCAUUGUCCCAGCCUCUUCGCUGGCGCCGGCUGGGCAACAUUCCGAGGGGACCGUCCCCUCGGUAAUGGCGAAUGGGACCCA, the self-cleavage turned out to be 0.188. With GGCCGGCAUGGUCCCAGCCUCCUCGCUGGCGCCGGCUGGGCAACAUUCCGAGGGGUCCGUCCCCUCGGUAAUGCCGAAUGGGACCCA, the self-cleavage came out at 0.317.

On to GGCCGGCAUGGUCCCAGCGUCCUCGCUGGCGCCGGCUGGGCAACAUUCCGAGGGGACCGUCCCCUCGGUAAUGGCGAAUGGGACCAA, for which the self-cleavage was 0.

GGCCGGCAUCGUCCCAGCCUCCUCGCUGGCGCCGGCUGGGCAACAUUCCGAGGGGAUCGUCCCCUCGGUAAUGGCGAAUGGGACCCA: the self-cleavage turned out to be 1.11.

As to GGCCGGCAUGGUCCCAGCCUCCUCGCUGGCGCCGGCUGGGCAACAUUCCAAGGGGACCGUCCCCUCGGUAAUGGCGAAUGGGACCCC, the self-cleavage came to 1.07. As for GGCCGGCAUGGUCCCAGCCUCCUCGCUGGGGCCGGCUGGGCAACAUUCCGAGGGGACCUUCCCCUCGGUAAUGGCGAAUGGGACCCA, the self-cleavage came to 0.0744.

For GGCCGGCAUGGUCCCAGCCUCCUCGCUGGCGCCGGCUGGGCAACAUUCCGAGGGGUCCGUCCCCUCGGUAGUGGCGAAUGGGACCCA, the self-cleavage is 0.762. The result for GGCCGGCAUGGUCCCAGCCUCCUCGCUGUCGCCGGCUGGGCAACAUUCCGAGGGGUCCGUCCCCUCGGUAAUGGCGAAUGGGACCCA reads 0.109; that for GGCCGGCAUGGUCCCAGCCUCCUCGCUGGCGCCGCCCGGGCAACAUUCCGAGGGGACCGUCCCCUCGGUAAUGGCGAAUGGGACCCA, 0.18; that for GGCCGGCAUGGUCCCAGCCUCCUCGCUGGCGCCGGCUGGGCAACAUUCCGAGGGGACCGUCCCGUCGGUAAAGGCGAAUGGGACCCA, 0.614. For GGCCGGCAUGGUCCCAGCCUCCUCGCUGGCGCCGGCUGGGCAUCAUUCCGAGGGGACCGUCGCCUCGGUAAUGGCGAAUGGGACCCA the value was 0.332. On to GGCCGGCAUGGUCCCAGCCUCCUCGCCGGCGCCGGCUGGGCAACAUUCCGAGGGGACCGUCCCCUCGGUAAUGGCGAAUGGGAGCCA, for which the self-cleavage was 0.554.
